Where a chain is given by its changes, count along the chain named.
Assays:
[1] = biological target: T1, myc epitope tagged Ly49H (Ly49H-myc) (mouse, UniProt Q60682 1-266); assay: co-immunoprecipitation from transfected Ba/F3 cells
T1 construct: whole, on cells; Expressed in Ba/F3 transfectants; also called mouse Ly49H
T1 sequence (looked up): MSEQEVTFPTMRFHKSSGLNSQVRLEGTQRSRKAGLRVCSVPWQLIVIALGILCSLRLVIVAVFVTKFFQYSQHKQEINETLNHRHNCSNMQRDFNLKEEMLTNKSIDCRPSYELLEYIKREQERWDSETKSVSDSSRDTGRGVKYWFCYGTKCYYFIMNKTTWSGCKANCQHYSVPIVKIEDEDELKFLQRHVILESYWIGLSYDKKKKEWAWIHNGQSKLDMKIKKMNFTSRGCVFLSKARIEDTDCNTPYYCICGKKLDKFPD
Text: (§1) Transcripts of Ly49D and Ly49H are present in IL-2 activated NK cells (20). Ly49D is expressed on ~50% of NK cells (Mason, et al. (1996) *J. Exp. Med.* 184:2119), and is associated with a tyrosine phosphoprotein of 16 kD (Mason, et al. (1998) *J. Immunol.* 160:4148-4152). Murine NK cells, like human NK cells, transcribe mRNA for DAP12, a molecule which associates with the activating KIR2DS and mediates cellular activation (Lanier, et al. (1998) *Nature* 391:703). To examine if Ly49D or Ly49H associated with DAP12, Ba/F3 cells were stably transfected with an epitope-tagged mouse DAP12 (DAP12-FLAG). […] Ba/F3 or the Ba/F3-DAP12 transfectants were then infected with retroviruses encoding either Ly49D, a myc epitope tagged Ly49H (Ly49H-myc), or as a control Ly49A. Neither Ly49D nor Ly49H-myc was expressed at appreciable levels on the cell surface when transfected into Ba/F3 cells.
(§2) To confirm that Ly49D and Ly49H non-covalently associate with DAP12 at the cell surface, Ly49D/DAP12-FLAG or Ly49H-myc/DAP12-FLAG Ba/F3 transfectants were surface iodinated, lysed with digitonin, and immunoprecipitates were analyzed by SDS-PAGE.

Ly49D = biological target: T2, Ly49D (mouse, UniProt Q60651 1-263); assay: as above
T2 construct: whole, on cells; Expressed in Ba/F3 transfectants; also called mouse Ly49D
T2 sequence (looked up): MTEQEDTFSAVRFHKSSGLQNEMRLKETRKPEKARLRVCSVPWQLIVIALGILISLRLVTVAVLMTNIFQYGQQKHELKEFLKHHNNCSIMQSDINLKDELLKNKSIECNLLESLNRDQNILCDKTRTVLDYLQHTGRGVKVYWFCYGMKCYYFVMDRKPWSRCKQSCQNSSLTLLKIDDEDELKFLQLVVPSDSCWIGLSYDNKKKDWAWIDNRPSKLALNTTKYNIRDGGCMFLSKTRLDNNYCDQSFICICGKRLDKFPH
Text: as §1, §2

[2] = biological target: T3, CD94/NKG2C receptor (disulfide-linked heterodimer) (human, UniProt Q13241 1-179; P26717 1-231); assay: summary of example XII
T3 construct: whole, on cells; Expressed in Ba/F3 transfectants; also called CD94/NKG2C heterodimer
T3 sequence (Q13241 whole entry, chain 1 of 2): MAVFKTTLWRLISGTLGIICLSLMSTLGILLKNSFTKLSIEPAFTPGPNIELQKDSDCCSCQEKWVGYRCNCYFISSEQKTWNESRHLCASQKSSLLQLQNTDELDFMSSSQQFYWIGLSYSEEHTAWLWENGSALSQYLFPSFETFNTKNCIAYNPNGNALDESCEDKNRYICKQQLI
T3 sequence (P26717 whole entry, chain 2 of 2): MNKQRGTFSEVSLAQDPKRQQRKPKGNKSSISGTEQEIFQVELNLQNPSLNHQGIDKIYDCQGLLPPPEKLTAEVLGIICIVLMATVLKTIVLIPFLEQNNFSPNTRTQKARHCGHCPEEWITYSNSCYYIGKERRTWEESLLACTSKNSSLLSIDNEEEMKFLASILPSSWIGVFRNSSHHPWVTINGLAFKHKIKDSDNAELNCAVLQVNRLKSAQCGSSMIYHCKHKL

KIR2DS2 = biological target: T4, KIR2DS2 (human, UniProt P43631 22-304); assay: co-immunoprecipitation from 125I-labelled Ba/F3 transfectants
T4 construct: whole, on cells; Expressed in Ba/F3 or Jurkat transfectants; also called NKAT5
T4 sequence (P43631 22-304): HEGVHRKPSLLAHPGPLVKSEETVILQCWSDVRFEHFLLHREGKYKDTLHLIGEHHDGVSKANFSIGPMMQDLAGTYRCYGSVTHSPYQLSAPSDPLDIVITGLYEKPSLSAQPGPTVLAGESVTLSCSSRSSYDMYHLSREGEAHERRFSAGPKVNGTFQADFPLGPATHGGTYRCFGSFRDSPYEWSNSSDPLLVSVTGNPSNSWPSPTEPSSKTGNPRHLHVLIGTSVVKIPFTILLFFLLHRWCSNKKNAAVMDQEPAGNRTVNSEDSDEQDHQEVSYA
Text: Unlike CD94/NKG2C, KIR2DS2 molecules are expressed on the cell surface in the absence of DAP12, although they are unable to induce cellular activation (Bléry, et al. (1997) *J. Biol. Chem.* 272:8989-8996; Lanier, et al. (1998) *Nature* 391:703-707). KIR2DS2+ Ba/F3 cells were infected with retroviruses encoding either wild-type FLAG-DAP12 or the D-A transmembrane FLAG-DAP12 mutant receptor. Both KIR2DS2 and the mutant DAP12 protein were expressed on the cell surface. […] Like NKG2A and NKG2C, the KIR2DS2 protein has a counterpart, KIR2DL2, that lacks a charged amino acid in the transmembrane and contains an ITIM in its cytoplasmic domain. It has been previously reported that KIR2DL2 is unable to associate with DAP12 (Lanier, et al. (1998) *Nature* 391:703-707). Collectively, these findings indicate that the association of DAP12 with either KIR2DS2 or CD94/NKG2C complexes likely results from interactions involving the transmembrane domains of these proteins.

B1: epitope-tagged mouse DAP12 (DAP12-FLAG) (receptor, not shown: small tags and cut ends)
chain: AQSDTFPRCDCSSVSPGVLAGIVLGDLVLTLLIALAVYSLGRLVSRGQGTAEGTRKQHIAETESPYQELQGQRPEVYSDLNTQRQYYR
notes: Limits of the construct are not described; also called mouse DAP12-FLAG; FLAG-tagged form of mouse DAP12
B1: binds [1]; binds (Ly49D).

B2: DAP12-FLAG (human DAP12 with a FLAG epitope tag at the N terminus) (receptor, not shown: small tags and cut ends)
chain: QAQSDCSCSTVSPGVLAGIVMGDLVLTVLIALAVYFLGRLVPRGRGAAEAATRKQRITETESPYQELQGQRSDVYSDLNTQRPYYK
notes: Made as CD8 leader, FLAG, then DAP12 without its own leader; Runs as a disulfide-bonded homodimer on the cell surface; also called FLAG-DAP12
B2: binds [2].

B3: D-A transmembrane FLAG-DAP12 mutant receptor (receptor, not shown: small tags and cut ends)
chain: B2 chain with D23A
notes: also called mutant DAP12 protein
B3: no binding (KIR2DS2).
